For one substance, percent co-depleted results are on record in article PMC2847587.

What all share (experiment): immunodepletion
For assay [1], the target named is MHF2 (FANCM-associated Histone Fold protein 2) (human (endogenous in HeLa)) (UniProt A8MT69). The note with it: remark: other sources report otherwise.
Assay [2] has as its target FANCA (human (endogenous in HeLa)) (UniProt O15360).
Assay [3] deals with MHF1 (FANCM-associated Histone Fold protein 1) (human (endogenous in HeLa)) (UniProt Q8N2Z9).
Sequence of MHF1 (FANCM-associated Histone Fold protein 1) (human (endogenous in HeLa)) (Q8N2Z9 whole entry): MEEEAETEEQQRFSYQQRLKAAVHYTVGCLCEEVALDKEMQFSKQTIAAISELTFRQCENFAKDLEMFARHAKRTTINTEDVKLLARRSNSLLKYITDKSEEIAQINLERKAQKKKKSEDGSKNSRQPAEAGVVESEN
For assay [4], the target named is FAAP24 (human (endogenous in HeLa)) (UniProt Q9BTP7).
Sequence of FAAP24 (human (endogenous in HeLa)) (Q9BTP7 whole entry): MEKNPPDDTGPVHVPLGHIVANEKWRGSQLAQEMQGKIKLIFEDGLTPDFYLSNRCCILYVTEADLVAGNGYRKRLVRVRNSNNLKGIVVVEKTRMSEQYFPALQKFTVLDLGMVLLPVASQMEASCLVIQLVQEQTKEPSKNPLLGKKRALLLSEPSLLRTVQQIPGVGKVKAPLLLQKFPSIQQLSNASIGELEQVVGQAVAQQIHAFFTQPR

Sequence of FANCA (human (endogenous in HeLa)) (O15360 whole entry): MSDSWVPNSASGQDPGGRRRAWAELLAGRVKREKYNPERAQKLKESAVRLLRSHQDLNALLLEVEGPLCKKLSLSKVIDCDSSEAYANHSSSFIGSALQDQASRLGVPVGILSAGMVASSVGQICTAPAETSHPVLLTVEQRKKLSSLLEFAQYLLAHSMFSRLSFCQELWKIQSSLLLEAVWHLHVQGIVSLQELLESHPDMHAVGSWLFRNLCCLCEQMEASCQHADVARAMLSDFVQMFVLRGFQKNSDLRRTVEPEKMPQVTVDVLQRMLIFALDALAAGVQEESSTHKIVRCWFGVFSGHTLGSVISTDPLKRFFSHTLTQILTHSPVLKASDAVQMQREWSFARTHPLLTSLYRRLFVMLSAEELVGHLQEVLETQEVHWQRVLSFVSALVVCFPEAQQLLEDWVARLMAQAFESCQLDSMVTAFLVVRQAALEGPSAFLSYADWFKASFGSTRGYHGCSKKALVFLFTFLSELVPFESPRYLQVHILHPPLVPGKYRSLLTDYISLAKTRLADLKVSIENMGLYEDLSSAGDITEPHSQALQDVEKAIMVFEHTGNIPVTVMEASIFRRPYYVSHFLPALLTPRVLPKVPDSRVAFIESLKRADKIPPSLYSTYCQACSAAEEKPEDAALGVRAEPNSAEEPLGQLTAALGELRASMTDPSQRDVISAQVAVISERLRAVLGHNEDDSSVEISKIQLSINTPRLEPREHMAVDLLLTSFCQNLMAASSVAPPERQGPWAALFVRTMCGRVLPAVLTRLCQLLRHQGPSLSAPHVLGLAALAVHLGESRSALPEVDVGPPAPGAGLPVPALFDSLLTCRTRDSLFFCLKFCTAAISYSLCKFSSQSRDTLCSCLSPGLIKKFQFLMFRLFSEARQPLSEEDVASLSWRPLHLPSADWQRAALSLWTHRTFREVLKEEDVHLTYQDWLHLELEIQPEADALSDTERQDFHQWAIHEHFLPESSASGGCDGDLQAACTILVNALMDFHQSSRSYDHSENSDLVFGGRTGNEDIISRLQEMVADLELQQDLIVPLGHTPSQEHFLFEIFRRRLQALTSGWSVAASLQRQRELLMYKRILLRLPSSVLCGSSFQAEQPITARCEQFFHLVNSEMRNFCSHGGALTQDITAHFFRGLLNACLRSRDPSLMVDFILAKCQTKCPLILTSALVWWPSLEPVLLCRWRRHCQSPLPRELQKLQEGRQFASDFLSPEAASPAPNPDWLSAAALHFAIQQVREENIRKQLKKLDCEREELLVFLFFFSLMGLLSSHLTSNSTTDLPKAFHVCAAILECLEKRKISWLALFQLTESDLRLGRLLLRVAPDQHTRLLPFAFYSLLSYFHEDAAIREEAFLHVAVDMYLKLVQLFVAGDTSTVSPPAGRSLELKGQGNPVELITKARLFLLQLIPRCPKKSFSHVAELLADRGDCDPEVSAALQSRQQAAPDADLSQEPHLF
Sequence of MHF2 (FANCM-associated Histone Fold protein 2) (human (endogenous in HeLa)) (A8MT69 whole entry): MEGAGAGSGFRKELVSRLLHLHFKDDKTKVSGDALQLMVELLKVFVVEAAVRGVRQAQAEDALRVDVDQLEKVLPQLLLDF

For FANCM, Q8IYD8 1-2048, the percent co-depleted in assay [1] was 85%; in assay [2], below 30%; in assay [3], 85%; in assay [4], 70%.
